Source: patent WO2015070078A1

Key:
[1] = molecular target: human FcγRIIIa 158F variant (human) (UniProt P08637); assay: flow cytometry titration on CHO cells expressing human FcγRIIIa-158F
[2] = molecular target: mouse FcγRIIb (mouse) (UniProt P08101); assay: ELISA, recombinant mouse FcγRIIb coated on the plate
[3] = molecular target: human FcγRIIIa (158V variant) (human) (UniProt P08637); assay: flow cytometry titration on CHO cells expressing human FcγRIIIa-158V
[4] = molecular target: mouse FcγRIV (mouse); assay: ELISA, recombinant mouse FcγRIV coated on the plate
[5] = molecular target: human FcγRIIb (human) (UniProt P31994); assay: flow cytometry on CHO cells expressing human FcγRIIb; antibody as dimeric complex with PE-conjugated Fab'2 anti-human Fab'2
[6] = molecular target: human FcγRIIIA (CD16A), variant at 158 not stated (human) (UniProt P08637); assay: cell-based or functional assay; design: unit not given beside the values

Substance “ESKM (produced in MAGE 1.5 CHO cells, no detectable fucose or galactose) (antibody)” has a fold higher affinity (against normally glycosylated ESK1) [1] of 3.5 fold, an affinity as a fraction of that of ESK1 [2] of 0.5 fold and a higher affinity (against normally glycosylated ESK1) [3] of 80%. It also gave a higher affinity (against ESK1) [4] of 51% and a reduced affinity (against normally glycosylated ESK1) [5] of 50%.

Work on ESK1 (antibody) yielded an EC50 of reverse signaling through FcγRIIIA (CD16A): NFAT-luciferase reporter in Jurkat cells with RMF-pulsed T2 cells [6] of 0.88.

“ESKM having 100% reduced fucose content relative to ESK1 wildtype IgG1 (GlymaxX technology, CHO cells) (antibody)” was tested, and the EC50 of reverse signaling through FcγRIIIA (CD16A): NFAT-luciferase reporter in Jurkat cells with RMF-pulsed T2 cells [6] was 0.17.

With “ESK1 containing D265A/P329A mutations in the Fc domain (antibody)” the EC50 of reverse signaling through FcγRIIIA (CD16A): NFAT-luciferase reporter in Jurkat cells with RMF-pulsed T2 cells [6] was over 10000.
